The values below come from publication PMC2926592.

Experiment [1] deals with human XRCC1 R109A variant, recombinant, S-peptide- and His-tagged (human) (UniProt P18887). In words: pull-down.
The target of experiment [2] is human XRCC1 P161L population variant, recombinant, S-peptide- and His-tagged (human) (UniProt P18887). As to the kind of experiment: pull-down.

For the substance “DNA polymerase β (POLβ), recombinant (from UniProt P06746 1-335) (enzyme)”, in experiment [1], the fold decrease in POLβ retention against WT XRCC1 is 5 fold and the percent decrease in POLβ retention against WT XRCC1 is 83%. Further, in experiment [2], the percent decrease in POLβ retention against WT XRCC1 is 20%.
